According to patent publication CN111018978A (DONGGUAN PENGZHI BIOTECHNOLOGY CO LTD, dated 2020):

Biological target: T1, 人心肌肌钙蛋白I (cTnI) (human, UniProt P19429 1-210, limits assumed)
T1 construct: Both are treated here as one molecule; also called cTnI蛋白; cTnI质控品重组蛋白
Experiment: BLI (AMC sensor), antibody captured, cTnI recombinant protein in solution

T1 sequence (P19429 whole entry): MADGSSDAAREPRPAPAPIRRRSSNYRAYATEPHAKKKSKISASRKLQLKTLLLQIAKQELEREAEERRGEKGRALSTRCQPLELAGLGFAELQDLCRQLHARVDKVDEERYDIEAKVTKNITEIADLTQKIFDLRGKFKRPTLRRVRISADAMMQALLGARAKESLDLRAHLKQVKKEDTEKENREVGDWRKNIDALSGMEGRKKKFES

- Kd: 65.5 nM
- koff: 0.00278 s⁻¹
- kon: 42500 M⁻¹ s⁻¹
B1: Anti-cTnI 6E3 重组抗体 (WT) (antibody, mouse IgG1, kappa, V domains shown)
VH: EVQLQQSGPEVVKPGASVKISCKASGFIFSGQTMNWVKQSGEKNLEWIGLLNPSDNTTYNNKFKGKATLTVDKSSNTAYMQLLSLTSEDSAVYYCSSFGSWAQGTLVTVSA
VL: DIVLTQSPASLAVSLGQRATISCKASNSIDYEGDSYMNWYQQKPGQSPKLLIFVASLVDSGIPARFSASGSGTDFTLNIHPVEEEDAATYYCQQTYEGPWTFGGGTKLEIKR
notes: also called 样品1的抗体; Anti-cTnI 6E3单克隆抗体
